The series deals with Botulinum neurotoxin type A light chain (BoNT/A-rLc) (UniProt P0DPI1).

pKd: −log10 of the molar value.

For the sequence “AGCAGCACAGAGGTCAGATGNNNNNNNNNNNNNNNNNNNNNNNNNNNNNNNNNNNNNNNNNNNNNNNNNNNNNNNNNNNNCCTATGCGTGCTACCGTGAA [round 1 enriched aptamer pool (M-SELEX)]”, the pKd is 7.48.

As a reminder, the pKd is the Kd on a negative log10 scale, so that one unit is a factor of ten. The low end stands for a high Kd, the high end for a low Kd.

The values are drawn from patent US20090170718.
